Assay results as given in article PMC4264193, “Structures of the Inducer-Binding Domain of Pentachlorophenol-Degrading Gene Regulator PcpR from Sphingobium chlorophenolicum” (International Journal of Molecular Sciences, 2014).

Molecular target: the molecule itself
Assay: SEC-MALS; 200 ug of PcpR loaded on a BioSep-SEC-S 2000 column, eluted isocratically at 0.5 mL/min; UV, refractometer and Dawn EOS light scattering detectors; Zimm fit; calculated mass ~50 kD

B1: PcpR inducer-binding domain (residues from 85 to the C-terminus of PcpR) (domain or fragment, Sphingobium chlorophenolicum L-1, UniProt P52679 85-307, looked up)
chain: RSELRFDPGTSNRNFRIAASDFGQALMLPRLYATLEETAPQVRVTGVNLRHGPLVEELESGSIDIAFGGFPTLSAGIKTQTLFREEYVCVMRQSHPALTHGLDLEAFRQCRHIIVTAHEFNHVHEQVEARLLELLPPESIRFTTENFLVSAVIAEETDVILTIPSRLARWFANRGGLTIFPVPIELPSIEVKQYWHERYDKDPGNIWLRRVIAKIGFQNPPAE
notes: PcpR, LysR-type transcription factor of Sphingobium chlorophenolicum L-1; Cloned into pET30-LIC and expressed as a C-terminal HIS6X fusion protein; also called PcpR IBD; source: E. coli BL21(DE3), purified (nickel-nitrilotriacetate column, Mono Q anion exchange)
stoichiometry N: 2
